Experimental data taken from PMC2808462 (Biochemistry, 2010).

Biological target: the molecule itself
Test: AUC

B1: human progesterone receptor B-isoform (PR-B), residues 1-933 (natural protein, UniProt P06401 1-933, looked up)
chain: MTELKAKGPRAPHVAGGPPSPEVGSPLLCRPAAGPFPGSQTSDTLPEVSAIPISLDGLLFPRPCQGQDPSDEKTQDQQSLSDVEGAYSRAEATRGAGGSSSSPPEKDSGLLDSVLDTLLAPSGPGQSQPSPPACEVTSSWCLFGPELPEDPPAAPATQRVLSPLMSRSGCKVGDSSGTAAAHKVLPRGLSPARQLLLPASESPHWSGAPVKPSPQAAAVEVEEEDGSESEESAGPLLKGKPRALGGAAAGGGAAAVPPGAAAGGVALVPKEDSRFSAPRVALVEQDAPMAPGRSPLATTVMDFIHVPILPLNHALLAARTRQLLEDESYDGGAGAASAFAPPRSSPCASSTPVAVGDFPDCAYPPDAEPKDDAYPLYSDFQPPALKIKEEEEGAEASARSPRSYLVAGANPAAFPDFPLGPPPPLPPRATPSRPGEAAVTAAPASASVSSASSSGSTLECILYKAEGAPPQQGPFAPPPCKAPGASGCLLPRDGLPSTSASAAAAGAAPALYPALGLNGLPQLGYQAAVLKEGLPQVYPPYLNYLRPDSEASQSPQYSFESLPQKICLICGDEASGCHYGVLTCGSCKVFFKRAMEGQHNYLCAGRNDCIVDKIRRKNCPACRLRKCCQAGMVLGGRKFKKFNKVRVVRALDAVALPQPVGVPNESQALSQRFTFSPGQDIQLIPPLINLLMSIEPDVIYAGHDNTKPDTSSSLLTSLNQLGERQLLSVVKWSKSLPGFRNLHIDDQITLIQYSWMSLMVFGLGWRSYKHVSGQMLYFAPDLILNEQRMKESSFYSLCLTMWQIPQEFVKLQVSQEEFLCMKVLLLLNTIPLEGLRSQTQFEEMRSSYIRELIKAIGLRQKGVVSSSQRFYQLTKLLDNLHDLVKQLHLYCLNTFIQSRALSVEFPEMMSEVIAAQLPKILAGMVKPLLFHKK
With B1 the “stoichiometry N” value was 2.
